This experiment has as its target T1, rhIL-23 (human, UniProt Q9NPF7 20-189; P29460 23-328).
T1 construct: Recombinant human IL-23 coated on immunoassay plates; also called IL-23 ligand
T1 sequence (looked up) 1: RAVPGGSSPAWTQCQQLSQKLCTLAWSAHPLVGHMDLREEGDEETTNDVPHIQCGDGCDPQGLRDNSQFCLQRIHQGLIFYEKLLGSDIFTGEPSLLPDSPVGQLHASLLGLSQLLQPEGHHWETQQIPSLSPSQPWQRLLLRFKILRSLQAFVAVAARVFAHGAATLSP
T1 sequence (looked up) 2: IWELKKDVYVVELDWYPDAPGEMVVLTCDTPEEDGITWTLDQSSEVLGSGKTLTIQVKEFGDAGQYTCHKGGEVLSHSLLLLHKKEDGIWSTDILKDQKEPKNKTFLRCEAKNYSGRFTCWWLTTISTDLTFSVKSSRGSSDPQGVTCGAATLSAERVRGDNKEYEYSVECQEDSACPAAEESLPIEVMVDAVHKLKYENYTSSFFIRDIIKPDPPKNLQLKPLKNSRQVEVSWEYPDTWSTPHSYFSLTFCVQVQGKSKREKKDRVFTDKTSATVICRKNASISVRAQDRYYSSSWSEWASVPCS
Briefly: ELISA, ligand coated on plate, conditioned medium with soluble receptor. The method, then:
Ligand Binding Assays: Conditioned media containing […] were generated in transfected or virally-infected 293 cells. Receptor concentrations in collected media were determined by ELISA and Western blot. Ligand binding assays were performed on immunoassay plates coated with target ligand rhIL-17 or rhIL-23. Typically conditioned media containing serial dilutions of soluble receptor were incubated with immobilized ligand 1-2 hours at room temperature. Unbound ligand was washed away and bound protein was detected and quantified with receptor-specific detection antibodies, as is performed in an ELISA.
In order to test the ability of the soluble IL-17 and IL-23 receptor fusions to bind to their respective ligands, the following experiments were conducted. In one experiment, the ability of the soluble receptors to bind immobilized ligands was explored. Conditioned media for each receptor was generated from Ad-infected A459 cells and quantified by ELISA as described. Binding was measured on ELISA plates pre-coated with IL-23 or IL-17 ligand. Relative binding was compared to purchased receptor/Fc chimeras (R&D Systems, Minneapolis, Minn.). The control IL-17R/Fc from R&D contains human IL-17R(Met1-Trp320) fused to IEGRMD and human IgG1(Pro100-Lys330). […]
In general terms: ELISA stands for enzyme-linked immunosorbent assay.

B1: sIL23R-9gly-CH3 (Fc fusion)
chain: GITNINCSGHIWVEPATIFKMGMNISIYCQAAIKNCQPRKLHFYKNGIKERFQITRINKTTARLWYKNFLEPHASMYCTAECPKHFQETLICGKDISSGYPPDIPDEVTCVIYEYSGNMTCTWNAGKLTYIDTKYVVHVKSLETEEEQQYLTSSYINISTDSLQGGKKYLVWVQAANALGMEESKQLQIHLDDIVIPSAAVISRAETINATVPKTIIYWDSQTTIEKVSCEMRYKATTNQTWNVKEFDTNFTYVQQSEFYLEPNIKYVFQVRCQETGKRYWQPWSSPFFHKTPETVPQVTSKAFQHDTWNSGLTVASISTGHLTGGGGGGGGGQPREPQVYTLPPSRDELTKNQVSLTCLVKGFYPSDIAVEWESNGQPENNYKTTPPVLDSDGSFFLYSKLTVDKSRWQQGNVFSCSVMHEALHNHYTQKSLSLSPGK
notes: Fusion to the CH3 domain of human IgG1 only, with no hinge or CH2; It was tested as conditioned medium from adenovirus-infected cells; also called hIL-23R-9gly-CH3 chimera; soluble IL-23r
For the molecule B1, the binding result is “binds”.

Values taken from patent publication US20110052585A1 (Sanofi, published 2011).
